Laboratory results taken from the Human Domainome abundance scans (Beltran et al. 2025).

B1: E3 ubiquitin-protein ligase Midline-1, residues 172 to 214; numbered along this chain, O15344 (parent)
chain: GLMCLEHEDEKVNMYCVTDDQLICALCKLVGRHRDHQVAALSE

Variants of: B1
Assay: abundance fitness (aPCA) (normalised: wild type 0, dead -1); higher = more abundant; growth selection in yeast, the domain comes from the species named
Settings: Homo sapiens

Abundance fitness, by site and new letter:
C24: E -1.05, K -0.885, M -1.02, Q -0.792, A -0.799, L -0.868, P -0.977, R -1.02, W -0.978, G -0.814, T -0.706, V -0.971, N -0.656, Y -0.364, S -1.01
V30: R -0.055, W -0.309, M -0.039, Y -0.049, S 0.114, F -0.381, A 0.15, P 0.022, N 0.147, D 0.145, E 0.138, H 0.21, L -0.028, C -0.115, G 0.134, I -0.131, K 0.235
R32: A 0.033, D -0.072, F -0.593, V -0.172, L -0.058, E 0.149, W -0.323, Q 0.007, K 0.116, T 0.09, H -0.152, I -0.18, C -0.021, G 0.061, S 0.073, M -0.219, P -0.022, N 0.287
I23: R -0.237, G -0.19, T -0.1, D -0.124, K -0.312, S -0.369, C -0.081, W -0.423, M 0.011, L -0.019, A 0.022, F -0.38, V 0.151, E -0.233
R34: C 0.033, Y -0.544, K 0.376, I 0, E 0.063, H 0.25, G 0.048, P -0.24, V -0.069, A 0.164, W -0.542, S -0.066, L -0.376, D -0.169, Q 0.088
A39: K 0.059, M -0.089, V 0.027, D 0.088, T 0.181, C 0.003, I -0.08, H -0.024, N 0.401, P -0.491, S 0.102, E 0.016, Q 0.04
K28: C -0.148, G 0.013, Q 0.288, D -0.038, P 0, V -0.396, I 0.061, N -0.042, F -0.316, S 0.013, T 0.063, Y -0.161, A 0.083, E 0.007, H 0.083, R 0.119, L -0.16, M -0.114, W -0.149
D35: L -0.172, M -0.299, F -0.254, Y -0.33, Q 0.034, E 0.088, P -0.299, I -0.496, V -0.28, N -0.114, S -0.189, C -0.142, R -0.287, K -0.105, A -0.285, T -0.042, H -0.177
L22: W 0.024, N 0.698, Q 0.29, T 0.204, H 0.482, M 0.004, S 0.316, V -0.025, E 0.377, G 0.364, P 0.428, R 0.311, K 0.33
A25: D -0.073, T -0.16, V -0.303, H 0.188, P -0.124, K -0.02, I -0.266, W -0.181, C -0.097, E -0.018, F -0.233, R 0.099, M -0.23, G 0.105, L -0.28, Q 0.087
G31: H 0.057, C -0.121, L -0.47, T -0.333, S -0.263, I -0.887, M -0.514, E -0.154, D 0.111, Q -0.438, K -0.065, F -0.519, R -0.299, A -0.231, Y -0.19, W -0.803
D19: Q -0.557, V -1.02, H -0.496, K -0.759, L -1.04, R -0.65, T -0.984, M -1.1, G -0.72, P -0.723, N -0.095, W -0.779, S -0.377
H36: V -0.588, K 0.034, P -0.637, Q -0.284, M -1.04, Y -0.381, R -0.669, S -0.533, A -0.445, T -0.689, E -0.546, C -0.056, D -0.798, G -0.516, L -0.753, I -0.488, N -0.376, W -1.01
L26: V 0.027, H 0.353, N 0.193, A 0.083, I -0.525, E 0.101, Q 0.387, T 0.189, Y -0.041, R 0.272, M 0.031, S 0.165, D 0.089, C 0.138, P 0.295, K 0.193
L29: I -0.205, Y -0.085, H 0.19, T 0.175, F -0.262, M 0.086, G 0.213, R 0.227, K 0.182, V 0.008, D 0.241, A 0.135, C 0.025, N 0.072, S 0.279, Q -0.016, E 0.211
Q21: W -0.682, Y -0.171, P -0.524, G -0.133, A 0.003, T -0.064, M 0.052, V 0.044, H 0.231, I -0.133, F -0.07, C -0.174, S 0.042, D -0.099, L -0.154, R 0.031, E -0.047
C27: S -0.807, L -0.883, E -0.741, M -1.02, D -0.328, G -0.696, Y -0.448, V -1, A -0.757, K -0.429, Q -0.913, H -0.481, W -1.01, T -0.571, P -0.166, I -0.538, N -0.478
V38: W -0.018, N -0.243, H 0.082, T -0.233, F 0.124, R -0.217, I -0.217, K -0.209, S -0.008, D -0.131, G -0.134, L -0.035, Q -0.125, M -0.18, C 0.076
D20: G -0.075, Q 0.099, A -0.15, M -0.067, I -0.543, C -0.308, S -0.038, R -0.083, P -0.573, H -0.106, T -0.232, L -0.404, Y -0.464, N 0.033, W -0.753, V -0.33
H33: Y -0.603, Q -0.73, S -0.718, R -0.732, V -0.882, K -0.423, A -0.591, E -0.576, G -0.478, L -0.829, T -0.538, N -0.42, W -1.01, D -0.647, F -0.528
Q37: A -0.006, E 0.023, D 0.105, T -0.026, L -0.338, H -0.148, W -0.6, M -0.269, Y -0.169, N -0.184, F -0.347, G -0.146, S 0.047, R -0.077, I -0.508, V -0.208, P -0.015
